# Experimental data: patent US20150267232A1, “IN VIVO AND IN VITRO CARBENE INSERTION AND NITRENE TRANSFER REACTIONS CATALYZED BY HEME ENZYMES” (California Institute of Technology, priority 2012, published 2015)
# B1: ABC-T268A: P450BM3 variant: T268A, C400S (protein, listed as Bacillus megaterium)
# chain: TIKEMPQPKTFGELKNLPLLNTDKPVQALMKIADELGEIFKFEAPGRVTRYLSSQRLIKEACDESRFDKNLSQALKFVRDFAGDGLFTSWTHEKNWKKAHNILLPSFSQQAMKGYHAMMVDIAVQLVQKWERLNADEHIEVPEDMTRLTLDTIGLCGFNYRFNSFYRDQPHPFITSMVRALDEAMNKLQRANPDDPAYDENKRQFQEDIKVMNDLVDKIIADRKASGEQSDDLLTHMLNGKDPETGEPLDDENIRYQIITFLIAGHEATSGLLSFALYFLVKNPHVLQKAAEEAARVLVDPVPSYKQVKQLKYVGMVLNEALRLWPTAPAFSLYAKEDTVLGGEYPLEKGDELMVLIPQLHRDKTIWGDDVEEFRPERFENPSAIPQHAFKPFGNGQRASIGQQFALHEATLVLGMMLKHFDFEDHTNYELDIKETLTLKPEGFVVKAKSKKIPLGGIPSPSTEQSAKKVRKKAENAHNTPLLVLYGSNMGTAEGTARDLADIAMSKGFAPQVATLDSHAGNLPREGAVLIVTASYNGHPPDNAKQFVDWLDQASADEVKGVRYSVFGCGDKNWATTYQKVPAFIDETLAAKGAENIADRGEADASDDFEGTYEEWREHMWSDVAAYFNLDIENSEDNKSTLSLQFVDSAADMPLAKMHGAFSTNVVASKELQQPGSARSTRHLEIELPKEASYQEGDHLGVIPRNYEGIVNRVTARFGLDASQQIRLEAEEEKLAHLPLAKTVSVEELLQYVELQDPVTRTQLRAMAAKTVCPPHKVELEALLEKQAYKEQVLAKRLTMLELLEKYPACEMKFSEFIALLPSIRPRYYSISSSPRVDEKQASITVSVVSGEAWSGYGEYKGIASNYLAELQEGDTITCFISTPQSEFTLPKDPETPLIMVGPGTGVAPFRGFVQARKQLKEQGQSLGEAHLYFGCRSPHEDYLYQEELENAQSEGIITLHTAFSRMPNQPKTYVQHVMEQDGKKLIELLDQGAHFYICGDGSQMAPAVEATLMKSYADVHQVSEADARLWLQQLEEKGRYAKDVWAG
# modifications: cytochrome P450NADPH-P-450 reductase precursor, cytochrome P450 (BM3), CYP102A1
# notes: P450BM3 variant: T268A, C400S
# Assay: N—H insertion, aniline with ethyl diazo acetate (EDA)
# Assay type: biochemical
# Settings: protein 10 uM, EDA 8.5 mM, aniline 20 mM, Na2S2O4 10 mM, 12 h
# Outline: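 Final reactions contained 10 or 20 μM P450BM3 variant, 20 mM aniline, 8.5 mM EDA and 10 mM Na2S2O4 in 0.1 M phosphate pH 8.0 under argon, with MeOH cosolvent. After 12 h at 25° C, products were extracted into cyclohexane and quantified by GC-FID against phenethyl alcohol internal standard and calibration curves from authentic standards, giving yield and TTN.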
molecule,measurement,setting,value
B1,TTn,,95
same,% Yield,product 4.3,9.5%
